Source: the Immune Epitope Database (IEDB)

Experiments:
HLA-A*69:01 = assay: IEDB peptide-MHC binding, purified MHC/direct/fluorescence; filed as Kd, often an IC50 or EC50 that approximates it; ≥ and ≤ were set here for values at or beyond the usual limits of such assays
HLA-A*02:01 = assay: as above
HLA-A*01:01 [1] = assay: as above
HLA-A*30:02 = assay: IEDB peptide-MHC binding, purified MHC/competitive/radioactivity; filed as Kd, often an IC50 or EC50 that approximates it; ≥ and ≤ were set here for values at or beyond the usual limits of such assays
HLA-A*24:02 = assay: as above
HLA-A*23:01 = assay: as above
HLA-A*01:01 [2] = assay: as above
HLA-A*29:02 = assay: as above
HLA-A*26:01 = assay: as above
HLA-A*02:06 = assay: as above; details: source organism: SARS coronavirus Tor2
HLA-A*02:03 = assay: as above; details: source organism: SARS coronavirus Tor2
HLA-A*02:02 = assay: as above; details: source organism: SARS coronavirus Tor2
HLA-A*03:01 = assay: IEDB peptide-MHC binding, purified MHC/direct/fluorescence; filed as Kd, often an IC50 or EC50 that approximates it; ≥ and ≤ were set here for values at or beyond the usual limits of such assays; details: source organism: SARS-CoV1
HLA-B*15:01 = assay: as above; details: source organism: Mycobacterium tuberculosis variant bovis
HLA-B*44:02 = assay: IEDB peptide-MHC binding, purified MHC/competitive/radioactivity; filed as Kd, often an IC50 or EC50 that approximates it; ≥ and ≤ were set here for values at or beyond the usual limits of such assays
[3] = source organism: Vibrio vulnificus
[4] = source organism: Mammarenavirus machupoense
[5] = source organism: SARS coronavirus Tor2
[6] = source organism: Lymphocytic choriomeningitis virus (strain Armstrong)
[7] = source organism: Encephalitozoon cuniculi
[8] = source organism: Dengue virus 3 Martinique/1243/1999
[9] = source organism: Lassa virus GA391
[10] = source organism: Triticum aestivum
[11] = source organism: Mammarenavirus lassaense
[12] = source organism: Lassa virus Josiah

For RLSDPRFSQ, the Kd (HLA-A*69:01; [3]) was 121 nM and the Kd (HLA-A*02:01; [3]) was no less than 20000 nM.

Work on NMDRAVKLY yielded a Kd (HLA-A*01:01 [1]; source organism: Influenza A virus (A/Hong Kong/488/97(H5N1))) of 584 nM.

Sequence AYSKSLKELV has a Kd (HLA-A*30:02; [4]) of no less than 26700 nM, a Kd (HLA-A*24:02; [4]) of 2640 nM and a Kd (HLA-A*23:01; [4]) of 16300 nM. For the same sequence, the Kd (HLA-A*01:01 [2]; [4]) was no less than 70400 nM, the Kd (HLA-A*29:02; [4]) was no less than 57000 nM and the Kd (HLA-A*26:01; [4]) was no less than 69700 nM.

WIEFTNFKV was tested, and the Kd (HLA-A*30:02; [4]) was no less than 49900 nM, the Kd (HLA-A*24:02; [4]) was no less than 77500 nM and the Kd (HLA-A*23:01; [4]) was no less than 77700 nM. The Kd (HLA-A*01:01 [2]; [4]) was no less than 78100 nM, the Kd (HLA-A*29:02; [4]) was 8070 nM and the Kd (HLA-A*26:01; [4]) was no less than 77900 nM.

With PVSIINNAVY the Kd (HLA-A*30:02; [5]) was 601 nM, the Kd (HLA-A*24:02; [5]) was no less than 70300 nM and the Kd (HLA-A*23:01; [5]) was no less than 70000 nM. The Kd (HLA-A*01:01 [2]; [5]) was 10400 nM, the Kd (HLA-A*29:02; [5]) was 101 nM and the Kd (HLA-A*26:01; [5]) was 1580 nM.

DFGSVGGLF gave a Kd (HLA-A*24:02; source organism: Dengue virus 4 Dominica/814669/1981) of 2640 nM.

GLMWLSYFV was tested, and the Kd (HLA-A*02:06) was 0.975 nM, the Kd (HLA-A*02:03) was 0.82 nM and the Kd (HLA-A*02:02) was 0.199 nM. The Kd (HLA-A*03:01) was no less than 33000 nM, the Kd (HLA-A*69:01; source organism: SARS-CoV1) was 347 nM and the Kd (HLA-A*02:01; source organism: SARS-CoV1) was 3190 nM.

In the case of WQGDTGITY, the Kd (HLA-B*15:01) is reported as 799 nM.

Work on DYFESFSSFF yielded a Kd (HLA-A*24:02; [6]) of 11 nM, a Kd (HLA-A*23:01; [6]) of 4.72 nM and a Kd (HLA-A*29:02; [6]) of 0.356 nM.

Work on VFHLYLQYI yielded a Kd (HLA-A*30:02; [5]) of no less than 125000 nM, a Kd (HLA-A*24:02; [5]) of 1090 nM and a Kd (HLA-A*23:01; [5]) of 566 nM. The Kd (HLA-A*01:01 [2]; [5]) was 198 nM, the Kd (HLA-A*29:02; [5]) was no less than 71400 nM and the Kd (HLA-A*26:01; [5]) was 90.7 nM.

Sequence VFNGTSWFI has a Kd (HLA-A*30:02; [5]) of no less than 93800 nM, a Kd (HLA-A*24:02; [5]) of no less than 107000 nM and a Kd (HLA-A*23:01; [5]) of no less than 77800 nM. For the same sequence, the Kd (HLA-A*01:01 [2]; [5]) was no less than 78100 nM, the Kd (HLA-A*29:02; [5]) was no less than 45400 nM and the Kd (HLA-A*26:01; [5]) was no less than 77900 nM.

Sequence FVSLAIDAY has a Kd (HLA-A*30:02; [5]) of 897 nM, a Kd (HLA-A*24:02; [5]) of 17300 nM and a Kd (HLA-A*23:01; [5]) of no less than 28800 nM. For the same sequence, the Kd (HLA-A*01:01 [2]; [5]) was 2450 nM, the Kd (HLA-A*29:02; [5]) was 21.6 nM and the Kd (HLA-A*26:01; [5]) was 1730 nM.

In the case of FMRSISDDA, the Kd (HLA-A*69:01; [7]) is reported as no less than 20000 nM and the Kd (HLA-A*02:01; [7]) is reported as 168 nM.

In the case of EWSVATFYL, the Kd (HLA-A*30:02; [5]) is reported as no less than 29700 nM, the Kd (HLA-A*24:02; [5]) is reported as 1780 nM and the Kd (HLA-A*23:01; [5]) is reported as 5500 nM. It also gave a Kd (HLA-A*01:01 [2]; [5]) of no less than 78100 nM, a Kd (HLA-A*29:02; [5]) of no less than 59400 nM and a Kd (HLA-A*26:01; [5]) of no less than 45400 nM.

HEMYWISNG was tested, and the Kd (HLA-B*44:02; [8]) was 495 nM.

Work on KVDWNQFTY yielded a Kd (HLA-A*01:01 [1]; source organism: Giardia lamblia ATCC 50803) of 2 nM.

Work on FYTTTGIGY yielded a Kd (HLA-A*30:02; [5]) of no less than 93800 nM, a Kd (HLA-A*24:02; [5]) of no less than 45800 nM and a Kd (HLA-A*23:01; [5]) of no less than 60600 nM. It also gave a Kd (HLA-A*01:01 [2]; [5]) of 242 nM, a Kd (HLA-A*29:02; [5]) of no less than 46200 nM and a Kd (HLA-A*26:01; [5]) of 153 nM.

In the case of NLITCNDHY, the Kd (HLA-A*01:01 [1]; source organism: Mammarenavirus juninense) is reported as no less than 20000 nM.

Sequence VFRTSTPKVV has a Kd (HLA-A*30:02; [9]) of no less than 69700 nM, a Kd (HLA-A*24:02; [9]) of no less than 70300 nM and a Kd (HLA-A*23:01; [9]) of no less than 70000 nM. The Kd (HLA-A*01:01 [2]; [9]) was no less than 70400 nM, the Kd (HLA-A*29:02; [9]) was no less than 71400 nM and the Kd (HLA-A*26:01; [9]) was no less than 69700 nM.

QFLGQQQPF showed a Kd (HLA-A*30:02; [10]) of 831 nM, a Kd (HLA-A*24:02; [10]) of 206 nM and a Kd (HLA-A*23:01; [10]) of 7750 nM. The Kd (HLA-A*01:01 [2]; [10]) was no less than 78100 nM, the Kd (HLA-A*29:02; [10]) was 1470 nM and the Kd (HLA-A*26:01; [10]) was no less than 77900 nM.

RSKAFSNCY was tested, and the Kd (HLA-A*01:01 [1]; source organism: Influenza A virus (A/duck/Ontario/05/00 (H3N2))) was no less than 20000 nM.

YDQENPYRTW showed a Kd (HLA-B*44:02; source organism: Dengue virus 4 Philippines/H241/1956) of 156 nM.

ICGGTIDAY was tested, and the Kd (HLA-A*30:02; [11]) was 68.6 nM, the Kd (HLA-A*24:02; [11]) was no less than 77500 nM and the Kd (HLA-A*23:01; [11]) was no less than 77700 nM. The Kd (HLA-A*01:01 [2]; [11]) was no less than 40200 nM, the Kd (HLA-A*29:02; [11]) was no less than 21800 nM and the Kd (HLA-A*26:01; [11]) was no less than 77900 nM.

LYNFATCGLV showed a Kd (HLA-A*30:02; [12]) of 575 nM, a Kd (HLA-A*24:02; [12]) of 11900 nM and a Kd (HLA-A*23:01; [12]) of 2350 nM. It also gave a Kd (HLA-A*01:01 [2]; [12]) of no less than 31300 nM, a Kd (HLA-A*29:02; [12]) of 620 nM and a Kd (HLA-A*26:01; [12]) of no less than 69700 nM.

In the case of HTSSMRGVYY, the Kd (HLA-A*30:02; [5]) is reported as 3.4 nM, the Kd (HLA-A*24:02; [5]) is reported as no less than 46800 nM and the Kd (HLA-A*23:01; [5]) is reported as no less than 70000 nM. It also gave a Kd (HLA-A*01:01 [2]; [5]) of 58.5 nM, a Kd (HLA-A*29:02; [5]) of 17.8 nM and a Kd (HLA-A*26:01; [5]) of 52.7 nM.

QWFVERNMVI gave a Kd (HLA-A*24:02; [8]) of 121 nM and a Kd (HLA-A*23:01; [8]) of 111 nM.

Sequence AESLVGFLFY has a Kd (HLA-A*30:02; [4]) of 450 nM, a Kd (HLA-A*24:02; [4]) of no less than 70300 nM and a Kd (HLA-A*23:01; [4]) of no less than 66200 nM. The Kd (HLA-A*01:01 [2]; [4]) was no less than 52100 nM, the Kd (HLA-A*29:02; [4]) was 97.6 nM and the Kd (HLA-A*26:01; [4]) was no less than 69700 nM.
